Laboratory results taken from paper PMC4768041.

Key:
Experiment in all cases: SPR
Conditions in all cases: BIACORE 3000, RsmA-His6 (961 RU) on NTA chip; running buffer 10 mM Tris-HCl pH 7.5, 150 mM NaCl, 0.05% Tween (v/v), 1 mM [text truncated]; solutions degassed …
[1] = test system: RsmA-His6 (Pseudomonas aeruginosa)
[2] = test system: RsmA-His6 (Pseudomonas aeruginosa); remark: listed apart in the source
[3] = test system: RsmA-His6 (Pseudomonas aeruginosa); remark: listed apart in the source

cupA1 leader RNA gave a binding signal (% lower RU than rsmZ RNA) [1] of 50, a binding signal (% lower RU than rsmZ RNA) [2] of 67 and a binding signal (% lower RU than rsmZ RNA) [3] of 59.
